Residue numbers refer to the chain shown, from its start. Each block holds one binder with its values, some of them ahead of it.
Tests used:
[1] = target: T1, human CD19 on Raji cells (human, UniProt P15391 20-556); test: FACS on Raji cells
T1 construct: whole, on cells
T1 sequence (looked up): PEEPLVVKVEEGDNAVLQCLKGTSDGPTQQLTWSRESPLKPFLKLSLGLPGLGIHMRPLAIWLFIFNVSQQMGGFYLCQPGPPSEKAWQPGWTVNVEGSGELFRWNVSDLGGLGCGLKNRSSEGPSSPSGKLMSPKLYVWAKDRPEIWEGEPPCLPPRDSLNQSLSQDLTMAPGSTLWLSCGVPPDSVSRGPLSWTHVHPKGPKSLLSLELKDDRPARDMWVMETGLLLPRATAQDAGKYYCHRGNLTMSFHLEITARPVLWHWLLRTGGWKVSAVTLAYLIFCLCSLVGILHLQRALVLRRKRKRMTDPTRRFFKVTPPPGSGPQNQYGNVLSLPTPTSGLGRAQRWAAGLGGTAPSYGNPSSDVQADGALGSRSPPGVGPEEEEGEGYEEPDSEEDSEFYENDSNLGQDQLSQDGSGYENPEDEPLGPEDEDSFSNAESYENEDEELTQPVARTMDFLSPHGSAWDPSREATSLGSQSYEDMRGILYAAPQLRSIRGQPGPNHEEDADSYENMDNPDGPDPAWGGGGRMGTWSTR

[2] = target: T2, Human CD19-his protein (human, UniProt P15391 20-291); test: SPR Biacore, Ab captured on Protein A, CD19-His analyte
T2 construct: bought protein; also called recombinant human CD19-His; CD19 full-length protein; not shown: His tag
T2 sequence (looked up): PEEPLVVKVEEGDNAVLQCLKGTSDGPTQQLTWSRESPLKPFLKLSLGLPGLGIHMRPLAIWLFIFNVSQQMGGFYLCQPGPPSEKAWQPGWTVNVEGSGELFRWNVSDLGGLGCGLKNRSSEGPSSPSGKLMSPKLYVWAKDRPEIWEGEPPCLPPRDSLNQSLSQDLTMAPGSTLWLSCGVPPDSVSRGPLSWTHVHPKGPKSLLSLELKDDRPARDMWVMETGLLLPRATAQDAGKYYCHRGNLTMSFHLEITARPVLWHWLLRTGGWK
How it was run: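 Antibodies were captured on a Protein A chip at 25 °C in HBS-EP+. Human CD19-His was injected for 240 s at 30 μl/min at 5 concentrations from 200 nM (1:1 dilutions), with dissociation up to 600 s. Data were double-referenced and fitted to a Langmuir 1:1 model for apparent KD.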

[3] = target: T2, Human CD19-his protein; test: ELISA on coated human CD19-His
[4] = target: T3, human CD19 exon1-3-His tag protein (human, UniProt P15391 20-186, limits assumed); test: ELISA, coated human CD19 exon 1-3-His
T3 construct: membrane-distal part of the extracellular region, made in HEK293E cells; not shown: His tag
T3 sequence (looked up): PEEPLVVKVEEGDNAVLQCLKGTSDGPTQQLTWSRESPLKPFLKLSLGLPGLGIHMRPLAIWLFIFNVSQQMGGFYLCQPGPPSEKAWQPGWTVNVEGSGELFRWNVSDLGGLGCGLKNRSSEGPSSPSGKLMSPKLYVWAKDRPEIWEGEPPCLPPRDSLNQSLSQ

[5] = target: T3, human CD19 exon1-3-His tag protein; test: ELISA on coated human CD19 exon 1-3-His
[6] = target: T2, Human CD19-his protein; test: ELISA, coated human CD19-His
[7] = target: T2, Human CD19-his protein; test: SPR Biacore, method of example 7.1, human CD19-His
How it was run: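 Antibody captured on Protein A chip; recombinant human CD19-His injected for 240 s at 30 μl/min, five 1:1 dilutions from 200 nM, dissociation up to 600 s.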

[8] = target: T4, human CD19 on CHO-K1-human CD19 cells (human, UniProt P15391 20-556); test: FACS on CHO-K1-human CD19 cells
T4 construct: whole, on cells; also called CHO-K1-human CD19-2C8
T4 sequence (looked up): T1 sequence (looked up)

[9] = target: T5, murine CD19 protein (murine, UniProt P25918 17-287, limits assumed); test: ELISA
T5 construct: bought protein; also called commercial murine CD19
T5 sequence (looked up): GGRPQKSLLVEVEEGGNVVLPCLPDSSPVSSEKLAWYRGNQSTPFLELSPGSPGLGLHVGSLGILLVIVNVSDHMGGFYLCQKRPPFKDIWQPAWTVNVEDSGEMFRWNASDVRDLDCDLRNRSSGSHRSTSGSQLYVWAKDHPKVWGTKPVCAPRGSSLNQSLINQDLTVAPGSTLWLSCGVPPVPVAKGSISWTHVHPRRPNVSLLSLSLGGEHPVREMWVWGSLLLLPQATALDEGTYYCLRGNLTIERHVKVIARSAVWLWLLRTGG
Description: Human CD19-his protein (purchased from ACROBiosystems, catalog number: CD9-H52H2) was diluted with PBS to a final concentration of 4 μg/mL, and then added to a 96-well ELISA plate at 100 μl/well. The plate was sealed with a plastic film and incubated overnight at 4° C., the plate was washed 2 times with PBS the next day, and then a blocking solution [PBS+2% (w/w) BSA] was added for blocking at room temperature for 2 h. The blocking solution was poured off, and 100 nM gradiently diluted CD19 chimeric antibody or control antibody was added at 50 μl/well. After incubation at 37° C. for 2 h, the plate was washed 3 times with PBS. […] TMB substrate was added at 50 μl/well, and incubated at room temperature for 10 min, and then a stop solution (1.0 N HCl) was added at 50 μl/well. The OD450 nm values were read by an ELISA microplate reader (Multimode Plate Reader, EnSight, purchased from Perkin Elmer).
In order to detect the species cross-binding activity of the chimeric antibodies, an ELISA plate was coated with commercial murine CD19 (ACROBiosystems, catalog number: 50510-M08H) and monkey CD19 (ACROBiosystems, catalog number: 90051-C08H), respectively, and the ELISA detection was performed according to the method in example 5.1. […]

[10] = target: T6, human CD19 exon1-3-his protein (human, UniProt P15391 20-186, limits assumed); test: ELISA, coated at 2 ug/mL
T6 construct: made in HEK293E cells; also called membrane-distal end; not shown: His tag
T6 sequence (looked up): T3 sequence (looked up)

B1: F3.121.4 (antibody, human IgG1, V domains shown)
VH: QVQLQQPGAELVVPGTSVKLSCKASGYTFTNYWMHWVKQRPGQGLEWIGEIDPSDNYANYNQEFQGKATLTVDKSSSTAYMQLSSLTSDDSAVYYCARHDGYFGALDYWGQGTSVTVSS
VL: EIVLTQSPTTMAASPGEKITITCSASSSISSNYLHWYQQKPGFSPKFLIYRTSNLASGVPARFSGSGSGTSYSLTIGTMEAEDVATYYCQQASSIPRMFTFGSGTKLEIK
notes: human-murine chimeric antibody, human IgG1 constant; also called chimeric antibody F3.121.4
EC50 [1]: 0.31 nM | Maximum mean fluorescence intensity [1]: 32900 MFI | Kd [2]: 1.15 nM | koff [2]: 0.000375 s⁻¹ | kon [2]: 327000 M⁻¹ s⁻¹ | EC50 (read off the curve) [3]: ~0.1 nM | OD450 at 0.0001 nM [4]: 0.05 OD450 | OD450 at 0.001 nM [4]: 0.05 OD450 | OD450 at 0.01 nM [4]: 0.05 OD450 | OD450 at 0.10 nM [4]: 0.05 OD450 | OD450 at 1.00 nM [4]: 0.05 OD450 | OD450 at 10 nM [4]: 0.05 OD450 | OD450 at 100 nM [4]: 0.07 OD450 | binding result [5]: no binding (tested: 100 nM) | OD450 at 0.0001 nM [6]: 0.05 OD450 | OD450 at 0.001 nM [6]: 0.06 OD450 | OD450 at 0.01 nM [6]: 0.11 OD450 | OD450 at 0.10 nM [6]: 0.5 OD450 | OD450 at 1.00 nM [6]: 0.88 OD450 | OD450 at 10 nM [6]: 1.04 OD450 | OD450 at 100 nM [6]: 0.82 OD450 | Kd [7]: 1.15 nM | koff [7]: 0.000375 s⁻¹ | kon [7]: 327000 M⁻¹ s⁻¹ | EC50 [8]: 0.3 nM | Maximum mean fluorescence intensity [8]: 53700 MFI

B2: F3.121.4-L1H2 (antibody, mouse IgG1, kappa, V domains shown)
VH: EVQLVQSGAEVKKPGASVKVSCKASGYTFTNYWMHWVRQAPGQGLEWMGEIDPSDNYANYNQEFQGRVTITVDKSASTAYMELSSLRSEDTAVYYCARHDGYFGALDYWGQGTTVTVSS
VL: EIVLTQSPATLSLSPGERATLSCSASSSISSNYLHWYQQKPGQAPRFLIYRTSNLASGIPARFSGSGSGTDFTLTISSLEPEDFAVYYCQQASSIPRMFTFGQGTKLEIKR
notes: murine IgG1 constant regions; also called humanized antibody of F3.121.4
binding result [9]: no binding | binding result [10]: no binding

B3: F3.121.4-L2H2 (antibody, mouse IgG1, kappa, V domains shown)
VH: B2 VH
VL: EIVLTQSPDFQSVTPKEKVTITCSASSSISSNYLHWYQQKPDQSPKLLIKRTSNLASGVPSRFSGSGSGTDFTLTINSLEAEDAATYYCQQASSIPRMFTFGQGTKLEIKR
notes: as for B2
binding result [9]: no binding | binding result [10]: no binding

B4: F3.121.4-L1H1 (antibody, mouse IgG1, kappa, V domains shown)
VH: B2 VH with G44R
VL: B2 VL
notes: as for B2
binding result [9]: no binding | binding result [10]: no binding

Now from value to binder:

binding result [9]: no binding | binding result [10]: no binding
B5: F3.121.4-L1H4 (antibody, mouse IgG1, kappa)
heavy: EVQLQQSGAEVKKPGASVKVSCKASGYTFTNYWMHWVRQRPGQGLEWMGEIDPSDNYANYNQEFQGRVTITVDKSASTAYMELSSLRSEDTAVYYCARHDGYFGALDYWGQGTTVTVSSAKTTPPSVYPLAPGSAAQTNSMVTLGCLVKGYFPEPVTVTWNSGSLSSGVHTFPAVLQSDLYTLSSSVTVPSSTWPSETVTCNVAHPASSTKVDKKIVPRDCGCKPCICTVPEVSSVFIFPPKPKDVLTITLTPKVTCVVVDISKDDPEVQFSWFVDDVEVHTAQTQPREEQFNSTFRSVSELPIMHQDWLNGKEFKCRVNSAAFPAPIEKTISKTKGRPKAPQVYTIPPPKEQMAKDKVSLTCMITDFFPEDITVEWQWNGQPAENYKNTQPIMDTDGSYFVYSKLNVQKSNWEAGNTFTCSVLHEGLHNHHTEKSLSHSPGK
light: EIVLTQSPATLSLSPGERATLSCSASSSISSNYLHWYQQKPGQAPRFLIYRTSNLASGIPARFSGSGSGTDFTLTISSLEPEDFAVYYCQQASSIPRMFTFGQGTKLEIKRADAAPTVSIFPPSSEQLTSGGASVVCFLNNFYPKDINVKWKIDGSERQNGVLNSWTDQDSKDSTYSMSSTLTLTKDEYERHNSYTCEATHKTSTSPIVKSFNRNEC
notes: as for B2

binding result [9]: no binding | binding result [10]: no binding
B6: F3.121.4-L1H3 (antibody, mouse IgG1, kappa)
heavy: B5 heavy with Q5V
light: B5 light
notes: as for B2

Source: patent US20250042994A1 (HAINAN SIMCERE ZAIMING PHARMACEUTICAL, published 2025)
